Source: article PMC8044140 (Communications Biology, 2021)

Key:
[1] = molecular target: PefR (porphyrin-regulated efflux regulator) from Streptococcus agalactiae, non-His-tagged (Streptococcus agalactiae); assay: SEC; gel filtration of holo-PefR (heme-bound)
[2] = molecular target: PefR (porphyrin-regulated efflux regulator) from Streptococcus agalactiae, non-His-tagged (Streptococcus agalactiae); assay: SEC; gel filtration of purified apo-PefR (heme-free); single peak, estimated ~35 kDa against ca. 17 kDa for the monomer
[3] = molecular target: T1, PefR (porphyrin-regulated efflux regulator) (Streptococcus agalactiae, UniProt R4Z9I5); assay: biochemical; type: binding
T1 construct: gene AX245_08385; recombinant PefR, C-terminal His tag removed with HRV3C protease; homodimer, two hemes per dimer
T1 sequence (R4Z9I5 1-146): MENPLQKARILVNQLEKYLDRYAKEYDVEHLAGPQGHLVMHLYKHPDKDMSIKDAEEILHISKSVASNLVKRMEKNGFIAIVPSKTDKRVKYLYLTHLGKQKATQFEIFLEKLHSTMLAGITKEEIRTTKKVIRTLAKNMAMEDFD

[4] = molecular target: T2, PefR (holo-PefR, ferrous heme-bound) (Streptococcus agalactiae, UniProt R4Z9I5); type: binding
T2 construct: gene AX245_08385; recombinant holo-PefR, homodimer
T2 sequence (R4Z9I5 1-146): T1 sequence (R4Z9I5 1-146)

PefR [5] = molecular target: T3, PefR (Streptococcus agalactiae, UniProt Q8E4J9 1-146); assay: EMSA; apo (heme-free); EMSA: 20 mM Tris-HCl pH 7.4, 50 mM KCl, 5% glycerol, 0.2 M MgCl2, room temperature; FP: 40 mM HEPES/Na pH 7.4, 500 mM NaCl, 10% glycerol, 10 nM DNA, room temperature; details: protein: recombinant; tags: C-terminal HRV3C site-6xHis, His tag removed by HRV3C protease (site remnant remains); chain copies: 2; label: 5'-FAM on antisense strand; blunt
T3 sequence: T1 sequence (R4Z9I5 1-146)

PefR [6] = molecular target: T3, PefR; assay: X-ray crystallography; apo (heme-free), 2.5 A; EMSA: 20 mM Tris-HCl pH 7.4, 50 mM KCl, 5% glycerol, 0.2 M MgCl2, room temperature; FP: 40 mM HEPES/Na pH 7.4, 500 mM NaCl, 10% glycerol, 10 nM DNA, room temperature; details: protein: recombinant; tags: C-terminal HRV3C site-6xHis, His tag removed by HRV3C protease (site remnant remains); chain copies: 2; blunt
PefR R89A = PefR R89A (Streptococcus agalactiae, UniProt Q8E4J9 1-146, R89A); assay: EMSA; apo; 1:1 dimer:DNA, 5 uM; EMSA: 20 mM Tris-HCl pH 7.4, 50 mM KCl, 5% glycerol, 0.2 M MgCl2, room temperature; FP: 40 mM HEPES/Na pH 7.4, 500 mM NaCl, 10% glycerol, 10 nM DNA, room temperature; details: protein: recombinant; tags: C-terminal HRV3C site-6xHis, removed; chain copies: 2; label: 5'-FAM on antisense strand; blunt
PefR S62A = PefR S62A (Streptococcus agalactiae, UniProt Q8E4J9 1-146, S62A); assay: EMSA; apo; 1:1 dimer:DNA, 5 uM; similar to WT; EMSA: 20 mM Tris-HCl pH 7.4, 50 mM KCl, 5% glycerol, 0.2 M MgCl2, room temperature; FP: 40 mM HEPES/Na pH 7.4, 500 mM NaCl, 10% glycerol, 10 nM DNA, room temperature; details: protein: recombinant; tags: C-terminal HRV3C site-6xHis, removed; chain copies: 2; label: 5'-FAM on antisense strand; blunt
PefR K75A = PefR K75A (Streptococcus agalactiae, UniProt Q8E4J9 1-146, K75A); assay: as above; details: protein: recombinant; tags: C-terminal HRV3C site-6xHis, removed; chain copies: 2; label: 5'-FAM on antisense strand; blunt
PefR S67A = PefR S67A (Streptococcus agalactiae, UniProt Q8E4J9 1-146, S67A); assay: as above; details: protein: recombinant; tags: C-terminal HRV3C site-6xHis, removed; chain copies: 2; label: 5'-FAM on antisense strand; blunt
PefR K53A = PefR K53A (Streptococcus agalactiae, UniProt Q8E4J9 1-146, K53A); assay: as above; details: protein: recombinant; tags: C-terminal HRV3C site-6xHis, removed; chain copies: 2; label: 5'-FAM on antisense strand; blunt
PefR K63A = PefR K63A (Streptococcus agalactiae, UniProt Q8E4J9 1-146, K63A); assay: as above; details: protein: recombinant; tags: C-terminal HRV3C site-6xHis, removed; chain copies: 2; label: 5'-FAM on antisense strand; blunt
PefR H114A = PefR H114A (Streptococcus agalactiae, UniProt Q8E4J9 1-146, H114A); assay: fluorescence polarization; apo (heme-free); 1:1 dimer:dsDNA; EMSA: 20 mM Tris-HCl pH 7.4, 50 mM KCl, 5% glycerol, 0.2 M MgCl2, room temperature; FP: 40 mM HEPES/Na pH 7.4, 500 mM NaCl, 10% glycerol, 10 nM DNA, room temperature; details: protein: recombinant; tags: C-terminal HRV3C site-6xHis, removed; chain copies: 2; label: 5'-FAM on antisense strand; blunt
PefR [7] = molecular target: T3, PefR; assay: fluorescence polarization; apo (heme-free); 1:1 dimer:dsDNA; 500 mM NaCl; EMSA: 20 mM Tris-HCl pH 7.4, 50 mM KCl, 5% glycerol, 0.2 M MgCl2, room temperature; FP: 40 mM HEPES/Na pH 7.4, 500 mM NaCl, 10% glycerol, 10 nM DNA, room temperature; details: protein: recombinant; tags: C-terminal HRV3C site-6xHis, His tag removed by HRV3C protease (site remnant remains); chain copies: 2; label: 5'-FAM on antisense strand; blunt

PefR (porphyrin-regulated efflux regulator) from Streptococcus agalactiae, non-His-tagged (natural protein)
stoichiometry N [1]: 2 | stoichiometry N [2]: 2

C=CC1=C(C)C2=Cc3c(C=C)c(C)c4[n]3[Fe][n]3c(c(C)c(CCC(=O)O)c3=CC3=NC(=C4)C(C)=C3CCC(=O)O)=CC1=N2 [heme]
Kd [3]: 610 nM

[C-]#[O+] [carbon monoxide]
Kd [4]: 0.11 and 0.033 μM

B1: nontarget DNA (dsDNA)
DNA 1: GTTTTAAAACGACCTCTGTAGCGGTCGTTAAAGG
DNA 2: CCTTTAACGACCGCTACAGAGGTCGTTTTAAAAC
binding result (PefR [5]): no binding

B2: pefRCD operator for crystal (dsDNA)
DNA 1: TAAAATAGTTCTCACGATAACTATTAAAT
DNA 2: ATTTAATAGTTATCGTGAGAACTATTTTA
binding result (PefR [6]): binds

B3: target DNA (operon not stated) (dsDNA)
DNA 1: TAAAATAGTTCTCACGATAACTATTAAA
DNA 2: TTTAATAGTTATCGTGAGAACTATTTTA
binding result (PefR R89A): no binding | binding result (PefR S62A): binds | binding result (PefR K75A): binds | binding result (PefR S67A): binds | binding result (PefR K53A): binds | binding result (PefR K63A): binds

B4: pefRCD operator 28 bp (EMSA) (dsDNA)
DNA 1: TAAAATAGTTCTCACGATAACTATTAAA
DNA 2: TTTAATAGTTATCGTGAGAACTATTTTA
binding result (PefR [5]): binds

B5: pefAB operator 38 bp (dsDNA)
DNA 1: GCTATTATAAAATAGTTCTCACGATAACTAAAATAATG
DNA 2: CATTATTTTAGTTATCGTGAGAACTATTTTATAATAGC
Kd (PefR H114A): ~25 nM | Kd (PefR [7]): 40 nM
